These results are taken from article PMC9129923.

The assay has as its target microtubules grown from porcine brain tubulin (porcine) (UniProt P02550). Put plainly: TIRF microscopy of fluorescent proteins on dynamic microtubules in vitro.

“γ-TuRC^ΔWD/StN/CDK1/PLK1-GFP (γ-TuRC purified by Strep-NEDD1 ΔWD, GCP3-GFP) (from UniProt P23258;Q9BSJ2-1;Q96CW5-1;Q9UGJ1-2;Q96RT8-1;Q96RT7-1;Q08AG7;Q6P582;Q6NZ67;Q9Y5B8-1) (complex)” came in with an MT binding at 10 nM, percent of γ-TuRC^StN/CDK1/PLK1 of 21% and an MT binding at 50 nM, percent of γ-TuRC^StN/CDK1/PLK1 of 13%. “augmin^CDK1/PLK1-GFP, Q96CS2-1;Q9NVX0-1;Q68CZ6-1;Q9H6D7-1;O94927-1;Q7Z4H7-1;Q99871-1;Q9BT25-1” had a fold intensity along MTs over NEDD1^CDK1/PLK1 of 20 fold.
